The source of these data is article PMC11985968 (Nature Communications, 2025).

Several values for one entry are separate records, joined by “and”; a condition that tells them apart may be missing. Identical values can stand only once.

The target of the test is T1, Mycobacterium tuberculosis UvrA (Mycobacterium tuberculosis, UniProt P9WQK7 1-972).
T1 sequence: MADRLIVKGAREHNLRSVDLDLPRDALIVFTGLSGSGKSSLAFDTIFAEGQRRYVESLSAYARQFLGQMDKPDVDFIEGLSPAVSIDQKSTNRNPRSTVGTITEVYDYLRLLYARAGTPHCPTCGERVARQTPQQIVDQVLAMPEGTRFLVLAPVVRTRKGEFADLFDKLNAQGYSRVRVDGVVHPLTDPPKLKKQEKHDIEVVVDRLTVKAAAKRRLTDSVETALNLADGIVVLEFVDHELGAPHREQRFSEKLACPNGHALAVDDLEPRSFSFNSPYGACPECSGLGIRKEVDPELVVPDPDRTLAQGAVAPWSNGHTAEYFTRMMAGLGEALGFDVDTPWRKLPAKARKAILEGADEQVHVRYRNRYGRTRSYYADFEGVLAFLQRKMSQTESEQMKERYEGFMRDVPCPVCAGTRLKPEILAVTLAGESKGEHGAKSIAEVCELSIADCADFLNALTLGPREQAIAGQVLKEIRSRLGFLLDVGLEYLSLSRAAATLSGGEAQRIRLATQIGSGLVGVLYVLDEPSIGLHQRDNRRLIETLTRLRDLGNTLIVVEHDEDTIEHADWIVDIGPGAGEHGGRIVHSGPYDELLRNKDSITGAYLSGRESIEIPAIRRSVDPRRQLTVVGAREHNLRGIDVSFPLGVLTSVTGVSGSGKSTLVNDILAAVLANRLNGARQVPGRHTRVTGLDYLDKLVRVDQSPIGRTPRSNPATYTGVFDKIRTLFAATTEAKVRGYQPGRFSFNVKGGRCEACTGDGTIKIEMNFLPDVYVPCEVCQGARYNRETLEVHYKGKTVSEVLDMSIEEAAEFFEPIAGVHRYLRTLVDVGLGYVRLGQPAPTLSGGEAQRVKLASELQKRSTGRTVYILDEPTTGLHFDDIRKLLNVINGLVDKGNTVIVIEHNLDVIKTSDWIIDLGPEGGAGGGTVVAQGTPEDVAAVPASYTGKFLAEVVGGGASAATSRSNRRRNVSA
Briefly: cryo-EM structure.

B1: Mycobacterium tuberculosis UvrB (enzyme)
chain: VRAGGHFEVVSPHAPAGDQPAAIDELERRINAGERDVVLLGATGTGKSATTAWLIERLQRPTLVMAPNKTLAAQLANELREMLPHNAVEYFVSYYDYYQPEAYIAQTDTYIEKDSSINDDVERLRHSATSALLSRRDVVVVASVSCIYGLGTPQSYLDRSVELKVGEEVPRDGLLRLLVDVQYTRNDMSFTRGSFRVRGDTVEIIPSYEELAVRIEFFGDEIEALYYLHPLTGEVIRQVDSLRIFPATHYVAGPERMAHAVSAIEEELAERLAELESQGKLLEAQRLRMRTNYDIEMMRQVGFCSGIENYSRHIDGRGPGTPPATLLDYFPEDFLLVIDESHVTVPQIGGMYEGDISRKRNLVEYGFRLPSACDNRPLTWEEFADRIGQTVYLSATPGPYELSQTGGEFVEQVIRPTGLVDPKVVVKPTKGQIDDLIGEIRTRADADQRVLVTTLTKKMAEDLTDYLLEMGIRVRYLHSEVDTLRRVELLRQLRLGDYDVLVGINLLREGLDLPEVSLVAILDADKEGFLRSSRSLIQTIGRAARNVSGEVHMYADKITDSMREAIDETERRRAKQIAYNEANGIDPQPLRKKIADILDQVYREADDTAVVEVGGSGRNASRGRRAQGEPGRAVSAGVFEGRDTSAMPRAELADLIKDLTAQMMAAARDLQFELAARFRDEIADLKRELRGMDAAGLK
B1: the “stoichiometry N” value was 1 UvrB per UvrA dimer and 2 UvrB per UvrA dimer.

A word on the stoichiometry N: it is a count of units in the complex or per binding partner.
